From US20250340902A1, “GENE THERAPY FOR BVES-RELATED DISORDERS” (OHIO STATE INNOVATION FOUNDATION, priority 2022, published 2025)

Legend:
Assay in all cases: anti-HA co-IP from muscle, MS; CTRL 0
[1] = biological target: Bifunctional purine biosynthesis protein ATIC (Mus musculus) (UniProt Q9CWJ9)
[2] = biological target: Nucleolar protein of 40 kDa (Mus musculus) (UniProt Q9ESX4)
[3] = biological target: 26S proteasome non-ATPase regulatory subunit 7 (Mus musculus) (UniProt P26516)
[4] = biological target: Sodium channel protein type 4 subunit alpha (Mus musculus) (UniProt Q9ER60)
[5] = biological target: CDP-diacylglycerol--inositol 3-phosphatidyltransferase (Mus musculus) (UniProt Q8VDP6)
[6] = biological target: U2 small nuclear ribonucleoprotein B″ (Mus musculus) (UniProt Q9CQI7)
[7] = biological target: Heterogeneous nuclear ribonucleoprotein M (Mus musculus) (UniProt Q9D0E1)
[8] = biological target: Serine-threonine kinase receptor-associated protein (Mus musculus) (UniProt Q9Z1Z2)
[9] = biological target: Indolethylamine N-methyltransferase (Mus musculus) (UniProt P40936)
[10] = biological target: Voltage-dependent L-type calcium channel subunit alpha-1s (Mus musculus) (UniProt Q02789)
[11] = biological target: RUN and FYVE domain-containing protein 1 (Mus musculus) (UniProt Q8BIJ7)
[12] = biological target: Patatin-like phospholipase domain-containing protein 7 (Mus musculus) (UniProt A2AJ88)
[13] = biological target: Spectrin alpha chain, erythrocytic 1 (Mus musculus) (UniProt P08032)
[14] = biological target: Carboxypeptidase N catalytic chain (Mus musculus) (UniProt Q9JJN5)
[15] = biological target: DnaJ homolog subfamily B member 12 (Mus musculus) (UniProt Q9QYI4)
[16] = biological target: Anoctamin-5 (Mus musculus) (UniProt Q75UR0)
[17] = biological target: Sulfide:quinone oxidoreductase, mitochondrial (Mus musculus) (UniProt Q9R112)
[18] = biological target: Medium-chain specific acyl-CoA dehydrogenase, mitochondrial (Mus musculus) (UniProt P45952)
[19] = biological target: MAP7 domain-containing protein 1 (Mus musculus) (UniProt A2AJI0)
[20] = biological target: Exosome complex exonuclease RRP44 (Mus musculus) (UniProt Q9CSH3)
Fibulin-1 (Mus musculus) = Fibulin-1 (Mus musculus) (UniProt Q08879)
[21] = biological target: Dystrobrevin alpha (Mus musculus) (UniProt Q9D2N4)
Dysferlin (Mus musculus) = Dysferlin (Mus musculus) (UniProt Q9ESD7)
[22] = biological target: F-box only protein 40 (Mus musculus) (UniProt P62932)
[23] = biological target: NEDD8-conjugating enzyme Ubc12 (Mus musculus) (UniProt P61082)
[24] = biological target: Phosphofurin acidic cluster sorting protein 1 (Mus musculus) (UniProt Q8K212)
[25] = biological target: Coatomer subunit epsilon (Mus musculus) (UniProt O89079)
[26] = biological target: Band 3 anion transport protein (Mus musculus) (UniProt P04919)
[27] = biological target: Nuclear mitotic apparatus protein 1 (Mus musculus) (UniProt E9Q7G0)
[28] = biological target: Sorting and assembly machinery component 50 homolog (Mus musculus) (UniProt Q8BGH2)
[29] = biological target: ATP-binding cassette sub-family C member 9 (Mus musculus) (UniProt P70170)
[30] = biological target: BAG family molecular chaperone regulator 2 (Mus musculus) (UniProt Q91YN9)
[31] = biological target: Calcium/calmodulin-dependent protein kinase type II subunit gamma (Mus musculus) (UniProt Q923T9)
[32] = biological target: Transmembrane protein 201 (Mus musculus) (UniProt A2A8U2)
[33] = biological target: DNA replication licensing factor MCM2 (Mus musculus) (UniProt P97310)
[34] = biological target: Triggering receptor expressed on myeloid cells 2 (Mus musculus) (UniProt Q99NH8)
[35] = biological target: Monocarboxylate transporter 4 (Mus musculus) (UniProt P57787)
[36] = biological target: Proliferation-associated protein 2G4 (Mus musculus) (UniProt P50580)
Proliferation-associated protein 2G4 (Mus musculus), sequence (P50580 2-394 limits assumed): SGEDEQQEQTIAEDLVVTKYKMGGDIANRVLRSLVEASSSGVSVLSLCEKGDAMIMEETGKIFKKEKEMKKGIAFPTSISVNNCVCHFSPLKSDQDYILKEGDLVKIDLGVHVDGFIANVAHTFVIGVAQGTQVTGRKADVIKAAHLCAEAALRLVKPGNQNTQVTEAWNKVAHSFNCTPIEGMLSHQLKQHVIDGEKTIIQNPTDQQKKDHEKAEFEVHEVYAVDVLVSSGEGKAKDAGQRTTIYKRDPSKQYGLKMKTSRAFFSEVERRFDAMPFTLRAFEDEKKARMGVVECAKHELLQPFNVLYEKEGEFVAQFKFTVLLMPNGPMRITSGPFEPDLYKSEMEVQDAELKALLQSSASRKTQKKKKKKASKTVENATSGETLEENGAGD

DnaJ homolog subfamily B member 12 (Mus musculus), sequence (Q9QYI4 whole entry): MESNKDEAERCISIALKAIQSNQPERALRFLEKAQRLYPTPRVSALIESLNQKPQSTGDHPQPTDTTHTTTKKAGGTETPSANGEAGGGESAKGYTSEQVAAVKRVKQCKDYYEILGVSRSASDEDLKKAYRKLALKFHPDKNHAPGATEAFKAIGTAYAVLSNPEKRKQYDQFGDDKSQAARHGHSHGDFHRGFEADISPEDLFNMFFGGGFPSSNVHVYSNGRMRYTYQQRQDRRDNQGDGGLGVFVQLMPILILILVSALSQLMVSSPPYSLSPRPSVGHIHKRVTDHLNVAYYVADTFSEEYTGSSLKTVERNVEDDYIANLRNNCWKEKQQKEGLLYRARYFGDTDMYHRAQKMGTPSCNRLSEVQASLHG
Nuclear mitotic apparatus protein 1 (Mus musculus), sequence (E9Q7G0 whole entry): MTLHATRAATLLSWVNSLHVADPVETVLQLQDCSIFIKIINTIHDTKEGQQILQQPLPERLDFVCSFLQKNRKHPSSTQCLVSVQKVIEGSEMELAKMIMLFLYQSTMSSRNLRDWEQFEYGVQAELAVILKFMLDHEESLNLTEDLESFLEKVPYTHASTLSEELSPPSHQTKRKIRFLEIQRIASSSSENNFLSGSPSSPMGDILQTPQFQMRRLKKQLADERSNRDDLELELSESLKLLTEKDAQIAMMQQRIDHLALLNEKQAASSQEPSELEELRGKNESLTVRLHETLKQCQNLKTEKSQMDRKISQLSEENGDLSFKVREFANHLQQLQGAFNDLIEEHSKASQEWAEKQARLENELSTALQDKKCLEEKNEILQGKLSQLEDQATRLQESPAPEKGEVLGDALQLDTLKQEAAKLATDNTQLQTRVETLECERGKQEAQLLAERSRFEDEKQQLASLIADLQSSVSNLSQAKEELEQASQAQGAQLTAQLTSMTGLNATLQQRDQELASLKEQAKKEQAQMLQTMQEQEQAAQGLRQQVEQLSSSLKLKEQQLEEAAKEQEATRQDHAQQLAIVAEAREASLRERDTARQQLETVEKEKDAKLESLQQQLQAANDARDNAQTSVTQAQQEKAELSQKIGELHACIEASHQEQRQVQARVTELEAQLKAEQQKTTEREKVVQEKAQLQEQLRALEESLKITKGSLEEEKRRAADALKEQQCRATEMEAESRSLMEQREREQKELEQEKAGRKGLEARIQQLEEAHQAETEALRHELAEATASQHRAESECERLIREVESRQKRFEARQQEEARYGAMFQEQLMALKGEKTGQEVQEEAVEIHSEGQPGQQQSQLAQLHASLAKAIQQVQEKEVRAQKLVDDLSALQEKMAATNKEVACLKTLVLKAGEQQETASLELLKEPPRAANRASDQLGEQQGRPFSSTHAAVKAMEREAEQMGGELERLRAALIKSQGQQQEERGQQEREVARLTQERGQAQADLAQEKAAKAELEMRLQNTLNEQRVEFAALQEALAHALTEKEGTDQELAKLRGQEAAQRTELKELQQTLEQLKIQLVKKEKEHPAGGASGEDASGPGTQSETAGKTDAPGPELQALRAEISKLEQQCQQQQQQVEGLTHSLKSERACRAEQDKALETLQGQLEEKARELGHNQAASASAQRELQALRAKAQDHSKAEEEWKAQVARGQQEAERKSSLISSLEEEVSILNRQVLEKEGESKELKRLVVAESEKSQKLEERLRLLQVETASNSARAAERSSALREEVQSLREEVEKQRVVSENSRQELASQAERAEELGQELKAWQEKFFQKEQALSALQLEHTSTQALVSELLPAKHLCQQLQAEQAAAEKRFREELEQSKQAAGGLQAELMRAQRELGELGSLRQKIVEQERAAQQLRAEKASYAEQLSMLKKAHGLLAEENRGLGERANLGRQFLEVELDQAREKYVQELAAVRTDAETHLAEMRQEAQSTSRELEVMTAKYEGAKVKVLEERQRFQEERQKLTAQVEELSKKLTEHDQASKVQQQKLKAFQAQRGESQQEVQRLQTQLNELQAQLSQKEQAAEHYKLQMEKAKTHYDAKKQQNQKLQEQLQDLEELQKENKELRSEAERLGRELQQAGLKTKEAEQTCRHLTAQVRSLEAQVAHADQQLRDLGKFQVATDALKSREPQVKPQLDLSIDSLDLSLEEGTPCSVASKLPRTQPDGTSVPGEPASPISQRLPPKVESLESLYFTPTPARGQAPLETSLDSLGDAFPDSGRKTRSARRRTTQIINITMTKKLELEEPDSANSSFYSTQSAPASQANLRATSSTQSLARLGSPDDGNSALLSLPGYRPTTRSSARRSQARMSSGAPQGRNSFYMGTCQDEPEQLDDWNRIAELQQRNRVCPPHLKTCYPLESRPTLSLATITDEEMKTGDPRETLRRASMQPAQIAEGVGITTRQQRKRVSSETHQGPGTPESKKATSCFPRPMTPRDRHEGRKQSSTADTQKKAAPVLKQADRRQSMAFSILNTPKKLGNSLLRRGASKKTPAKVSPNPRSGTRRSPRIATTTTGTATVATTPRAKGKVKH
Serine-threonine kinase receptor-associated protein (Mus musculus), sequence (Q9Z1Z2 whole entry): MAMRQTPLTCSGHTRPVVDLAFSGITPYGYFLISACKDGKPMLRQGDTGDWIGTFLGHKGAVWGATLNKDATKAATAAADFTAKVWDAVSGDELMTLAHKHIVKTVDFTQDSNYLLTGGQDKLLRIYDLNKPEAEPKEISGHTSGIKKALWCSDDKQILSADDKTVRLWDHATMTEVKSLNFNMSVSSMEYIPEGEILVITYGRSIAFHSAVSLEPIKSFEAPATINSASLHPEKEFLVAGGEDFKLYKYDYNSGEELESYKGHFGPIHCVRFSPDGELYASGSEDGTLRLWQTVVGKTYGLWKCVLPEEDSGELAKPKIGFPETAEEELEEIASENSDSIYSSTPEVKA
Anoctamin-5 (Mus musculus), sequence (Q75UR0 whole entry): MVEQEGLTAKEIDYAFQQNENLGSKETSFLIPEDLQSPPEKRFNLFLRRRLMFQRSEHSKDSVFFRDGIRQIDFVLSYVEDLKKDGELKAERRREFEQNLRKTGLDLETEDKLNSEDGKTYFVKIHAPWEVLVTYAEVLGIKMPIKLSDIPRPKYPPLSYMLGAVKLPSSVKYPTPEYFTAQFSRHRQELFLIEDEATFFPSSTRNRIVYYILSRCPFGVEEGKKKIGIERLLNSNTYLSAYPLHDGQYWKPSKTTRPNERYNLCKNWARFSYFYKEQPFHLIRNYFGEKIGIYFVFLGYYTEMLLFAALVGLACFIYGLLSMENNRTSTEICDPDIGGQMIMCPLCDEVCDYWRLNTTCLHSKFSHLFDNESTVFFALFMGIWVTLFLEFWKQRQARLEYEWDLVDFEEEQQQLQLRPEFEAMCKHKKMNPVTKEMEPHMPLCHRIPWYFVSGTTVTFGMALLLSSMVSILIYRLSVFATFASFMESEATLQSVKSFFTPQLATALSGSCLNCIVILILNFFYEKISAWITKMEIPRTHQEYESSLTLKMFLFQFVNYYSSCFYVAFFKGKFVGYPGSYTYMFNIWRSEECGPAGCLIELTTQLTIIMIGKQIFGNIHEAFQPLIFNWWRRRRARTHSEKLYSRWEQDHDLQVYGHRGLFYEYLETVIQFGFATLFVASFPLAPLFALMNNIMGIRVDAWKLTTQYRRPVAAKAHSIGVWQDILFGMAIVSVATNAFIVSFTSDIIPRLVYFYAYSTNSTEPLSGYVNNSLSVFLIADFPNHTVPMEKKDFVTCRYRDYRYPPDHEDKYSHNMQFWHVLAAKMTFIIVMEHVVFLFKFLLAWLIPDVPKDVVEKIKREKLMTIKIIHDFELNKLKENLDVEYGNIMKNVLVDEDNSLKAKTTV
Nucleolar protein of 40 kDa (Mus musculus), sequence (Q9ESX4 whole entry): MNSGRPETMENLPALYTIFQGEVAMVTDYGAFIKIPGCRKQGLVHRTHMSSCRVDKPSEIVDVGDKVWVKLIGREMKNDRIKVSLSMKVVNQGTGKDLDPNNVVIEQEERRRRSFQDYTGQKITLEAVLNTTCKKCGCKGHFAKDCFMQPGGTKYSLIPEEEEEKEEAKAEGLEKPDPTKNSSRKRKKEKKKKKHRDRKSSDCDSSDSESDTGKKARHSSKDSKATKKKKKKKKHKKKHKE
Medium-chain specific acyl-CoA dehydrogenase, mitochondrial (Mus musculus), sequence (P45952 26-421 limits assumed): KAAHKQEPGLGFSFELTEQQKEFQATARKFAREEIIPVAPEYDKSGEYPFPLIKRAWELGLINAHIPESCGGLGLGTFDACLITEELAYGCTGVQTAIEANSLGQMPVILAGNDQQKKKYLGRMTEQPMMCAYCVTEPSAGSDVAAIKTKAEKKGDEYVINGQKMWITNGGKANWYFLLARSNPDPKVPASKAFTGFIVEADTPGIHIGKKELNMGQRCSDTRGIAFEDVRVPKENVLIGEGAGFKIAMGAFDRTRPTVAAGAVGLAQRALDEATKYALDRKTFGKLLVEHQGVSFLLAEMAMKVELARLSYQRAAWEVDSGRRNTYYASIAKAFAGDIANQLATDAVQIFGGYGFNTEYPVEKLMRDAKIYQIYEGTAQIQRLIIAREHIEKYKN
CDP-diacylglycerol--inositol 3-phosphatidyltransferase (Mus musculus), sequence (Q8VDP6 whole entry): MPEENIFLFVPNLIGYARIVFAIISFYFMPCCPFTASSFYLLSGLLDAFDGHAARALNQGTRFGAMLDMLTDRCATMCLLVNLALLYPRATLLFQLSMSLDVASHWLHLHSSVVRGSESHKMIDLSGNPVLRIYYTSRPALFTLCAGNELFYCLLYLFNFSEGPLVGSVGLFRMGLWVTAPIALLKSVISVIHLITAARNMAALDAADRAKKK

Substance: human BVES fused with 3xHA tag (from UniProt Q8NE79 1-360)
- AAV9-BVES-HA (IP-MS count) [1]: 3
- AAV9-BVES-HA (IP-MS count) [2]: 2
- AAV9-BVES-HA (IP-MS count) [3]: 2
- AAV9-BVES-HA (IP-MS count) [4]: 19
- AAV9-BVES-HA (IP-MS count) [5]: 2
- AAV9-BVES-HA (IP-MS count) [6]: 2
- AAV9-BVES-HA (IP-MS count) [7]: 2
- AAV9-BVES-HA (IP-MS count) [8]: 2
- AAV9-BVES-HA (IP-MS count) [9]: 2
- AAV9-BVES-HA (IP-MS count) [10]: 13
- AAV9-BVES-HA (IP-MS count) [11]: 5
- AAV9-BVES-HA (IP-MS count) [12]: 2
- AAV9-BVES-HA (IP-MS count) [13]: 27
- AAV9-BVES-HA (IP-MS count) [14]: 4
- AAV9-BVES-HA (IP-MS count) [15]: 2
- AAV9-BVES-HA (IP-MS count) [16]: 2
- AAV9-BVES-HA (IP-MS count) [17]: 3
- AAV9-BVES-HA (IP-MS count) [18]: 2
- AAV9-BVES-HA (IP-MS count) [19]: 2
- AAV9-BVES-HA (IP-MS count) [20]: 2
- AAV9-BVES-HA (IP-MS count) (Fibulin-1 (Mus musculus)): 3
- AAV9-BVES-HA (IP-MS count) [21]: 4
- AAV9-BVES-HA (IP-MS count) (Dysferlin (Mus musculus)): 12
- AAV9-BVES-HA (IP-MS count) [22]: 2
- AAV9-BVES-HA (IP-MS count) [23]: 2
- AAV9-BVES-HA (IP-MS count) [24]: 2
- AAV9-BVES-HA (IP-MS count) [25]: 2
- AAV9-BVES-HA (IP-MS count) [26]: 4
- AAV9-BVES-HA (IP-MS count) [27]: 2
- AAV9-BVES-HA (IP-MS count) [28]: 5
- AAV9-BVES-HA (IP-MS count) [29]: 14
- AAV9-BVES-HA (IP-MS count) [30]: 6
- AAV9-BVES-HA (IP-MS count) [31]: 13
- AAV9-BVES-HA (IP-MS count) [32]: 2
- AAV9-BVES-HA (IP-MS count) [33]: 4
- AAV9-BVES-HA (IP-MS count) [34]: 2
- AAV9-BVES-HA (IP-MS count) [35]: 12
- AAV9-BVES-HA (IP-MS count) [36]: 7
